Test results reported in article PMC6556434.

Tests used:
Experiment in all cases: ITC
[1] = target: H3(1-35)K4me3K27me3 doubly methylated peptide
[2] = target: H3(1-15)K4me3 peptide
[3] = target: H3(20-35)K27me3 peptide

Substance | stoichiometry N [1] | Kd [2] | Kd [3]
EBS without the C-terminal autoinhibition loop (EBSΔC, 1-199) (from UniProt F4JL28 1-199) (domain or fragment) | 1 | 30.7 µM | 
EARLY BOLTING IN SHORT DAY (EBS), full length (from UniProt F4JL28 1-234) (natural protein) |  | 86.8 µM | 49.8 µM
